Assay results from patent US20150079023A1.

Biological target: CD16 (Fc receptor on NK cells) (human) (UniProt P08637)
Assay: cell-based or functional assay

Sequence of UniProt P08637 (P08637 17-254): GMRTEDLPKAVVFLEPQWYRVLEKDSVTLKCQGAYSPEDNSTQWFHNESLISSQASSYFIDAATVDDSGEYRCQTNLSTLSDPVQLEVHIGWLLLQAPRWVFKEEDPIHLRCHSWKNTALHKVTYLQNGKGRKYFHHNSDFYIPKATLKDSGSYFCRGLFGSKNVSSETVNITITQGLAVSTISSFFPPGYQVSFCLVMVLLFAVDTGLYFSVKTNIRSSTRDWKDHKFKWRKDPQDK

Substance: rituximab (antibody)
- % of CD69+ cells among total NK cells, 7-day CLL PBMC culture, RTX 10 ug/mL (untreated median 35.75%): 65.2%
- median % of proliferating NK cells (CFSE dilution), 7-day CLL culture, antibody alone: 14.8%
- median % of proliferating NK cells (CFSE dilution), 7-day CLL culture, antibody plus IL-15 10 ng/mL (IL-15 alone 42.25%): 53.8%
- median % of viable CD19+/CD5+ B leukemic cells compared to untreated, 7 days, antibody alone: 79.5%
- median % of viable CD19+/CD5+ B leukemic cells compared to untreated, 7 days, antibody plus IL-15 10 ng/mL: 50.4%
